In patent US20230382970A1 (HANMI PHARM, published 2023):
Bridge positions count the residues as written; N and C are the ends. Square brackets hold non-standard residues; d marks the D form. Ends that are not written are not given here. Aib = CC(C)(N)C(=O)O

Tests used:
human GLP-1 receptor = human GLP-1 receptor (human, UniProt P43220 24-463); test: cell-based or functional assay
human GIP receptor = target: T1, human GIP receptor (human, UniProt P48546 22-466); test: cell-based or functional assay
T1 sequence (looked up): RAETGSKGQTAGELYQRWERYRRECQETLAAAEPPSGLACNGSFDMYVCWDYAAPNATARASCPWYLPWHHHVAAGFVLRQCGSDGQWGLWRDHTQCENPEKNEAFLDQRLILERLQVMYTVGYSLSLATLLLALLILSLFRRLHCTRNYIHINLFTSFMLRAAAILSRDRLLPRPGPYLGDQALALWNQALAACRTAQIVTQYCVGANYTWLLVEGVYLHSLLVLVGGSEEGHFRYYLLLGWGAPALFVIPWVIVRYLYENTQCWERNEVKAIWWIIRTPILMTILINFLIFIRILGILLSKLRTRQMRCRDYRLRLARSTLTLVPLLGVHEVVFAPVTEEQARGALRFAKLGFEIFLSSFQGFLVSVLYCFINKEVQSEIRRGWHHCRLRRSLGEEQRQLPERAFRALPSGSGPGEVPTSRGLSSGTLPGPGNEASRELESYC

B1: GLP-1/GIP dual agonist of SEQ ID NO: 14 (peptide)
peptide: H[Aib]EGTFTSDYSKYLDKKRQ[Aib]EFVQWLLNGGPSSGAPPPSC
In vitro activity (%) compared to native-type peptide, vs human GLP-1 (cAMP EC50, human GLP-1 receptor-expressing CHO cells) (human GLP-1 receptor): 160% | In vitro activity (%) compared to native-type peptide, vs human GIP (cAMP EC50, human GIP receptor-expressing CHO cells) (human GIP receptor): 0.3%

B2: GLP-1/GIP dual agonist of SEQ ID NO: 12 (peptide)
peptide: Y[Aib]EGTFTSDYSEYMEKEAVREFIAWLVRGGPSSGAPPPSK
modifications: bridge 12-16
In vitro activity (%) compared to native-type peptide, vs human GLP-1 (cAMP EC50, human GLP-1 receptor-expressing CHO cells) (human GLP-1 receptor): 110%

B3: GLP-1/GIP dual agonist of SEQ ID NO: 2 (peptide)
peptide: Y[Aib]EGTFTSDYSKYLDEIRAKDFVQWLLDHHPSSGQPPPSC
modifications: bridge 16-20
In vitro activity (%) compared to native-type peptide, vs human GLP-1 (cAMP EC50, human GLP-1 receptor-expressing CHO cells) (human GLP-1 receptor): 3.3% | In vitro activity (%) compared to native-type peptide, vs human GIP (cAMP EC50, human GIP receptor-expressing CHO cells) (human GIP receptor): 28.8%

B4: GLP-1/GIP dual agonist of SEQ ID NO: 1 (peptide)
peptide: Y[Aib]EGTFTSDYSEYMEKEAVREFIAWLVKGGPSSGAPPPSC
modifications: bridge 12-16
In vitro activity (%) compared to native-type peptide, vs human GLP-1 (cAMP EC50, human GLP-1 receptor-expressing CHO cells) (human GLP-1 receptor): 53.9% | In vitro activity (%) compared to native-type peptide, vs human GIP (cAMP EC50, human GIP receptor-expressing CHO cells) (human GIP receptor): 27.5%

B5: GLP-1/GIP dual agonist of SEQ ID NO: 9 (peptide)
peptide: Y[Aib]EGTFTSDYSRYLDERAAKDFVQWLLDHHPSSGQPPPSK
modifications: bridge 16-20
In vitro activity (%) compared to native-type peptide, vs human GLP-1 (cAMP EC50, human GLP-1 receptor-expressing CHO cells) (human GLP-1 receptor): 141%

B6: GLP-1/GIP dual agonist of SEQ ID NO: 5 (peptide)
peptide: Y[Aib]EGTFTSDYSKYLDEKAAKDFVQWLLDHHPSSGQPPPSC
modifications: bridge 16-20
In vitro activity (%) compared to native-type peptide, vs human GLP-1 (cAMP EC50, human GLP-1 receptor-expressing CHO cells) (human GLP-1 receptor): 20.2% | In vitro activity (%) compared to native-type peptide, vs human GIP (cAMP EC50, human GIP receptor-expressing CHO cells) (human GIP receptor): 48.2%

B7: GLP-1/GIP dual agonist of SEQ ID NO: 7 (peptide)
peptide: Y[Aib]EGTFTSDYSKYLDERAQKDFVQWLLDHHPSSGQPPPSC
modifications: bridge 16-20; also: ring type not given here
In vitro activity (%) compared to native-type peptide, vs human GLP-1 (cAMP EC50, human GLP-1 receptor-expressing CHO cells) (human GLP-1 receptor): 18.3% | In vitro activity (%) compared to native-type peptide, vs human GIP (cAMP EC50, human GIP receptor-expressing CHO cells) (human GIP receptor): 62.3%

B8: GLP-1/GIP dual agonist of SEQ ID NO: 11 (peptide)
peptide: Y[Aib]EGTFTSDYSRYLDERASKDFVQWLLDHHPSSGQPPPSK
modifications: bridge 16-20
In vitro activity (%) compared to native-type peptide, vs human GLP-1 (cAMP EC50, human GLP-1 receptor-expressing CHO cells) (human GLP-1 receptor): 95%

B9: GLP-1/GIP dual agonist of SEQ ID NO: 16 (peptide)
peptide: Y[Aib]EGTFTSDYSI[Aib]LDKIAQRAFVQWLIAGGPSSGAPPPSK
In vitro activity (%) compared to native-type peptide, vs human GLP-1 (cAMP EC50, human GLP-1 receptor-expressing CHO cells) (human GLP-1 receptor): 60% | In vitro activity (%) compared to native-type peptide, vs human GIP (cAMP EC50, human GIP receptor-expressing CHO cells) (human GIP receptor): 72.3%

B10: GLP-1/GIP dual agonist of SEQ ID NO: 8 (peptide)
peptide: Y[Aib]EGTFTSDYSKYLDERASKDFVQWLLDHHPSSGQPPPSC
modifications: bridge 16-20; also: ring type not given here
In vitro activity (%) compared to native-type peptide, vs human GLP-1 (cAMP EC50, human GLP-1 receptor-expressing CHO cells) (human GLP-1 receptor): 35.9% | In vitro activity (%) compared to native-type peptide, vs human GIP (cAMP EC50, human GIP receptor-expressing CHO cells) (human GIP receptor): 29.2%

B11: GLP-1/GIP dual agonist of SEQ ID NO: 13 (peptide)
peptide: Y[Aib]EGTFTSDYSEYMEKEAVREFISWLVRGGPSSGAPPPSK
modifications: bridge 12-16
In vitro activity (%) compared to native-type peptide, vs human GLP-1 (cAMP EC50, human GLP-1 receptor-expressing CHO cells) (human GLP-1 receptor): 116%

B12: GLP-1/GIP dual agonist of SEQ ID NO: 10 (peptide)
peptide: Y[Aib]EGTFTSDYSRYLDERAQKDFVQWLLDHHPSSGQPPPSK
modifications: bridge 16-20
In vitro activity (%) compared to native-type peptide, vs human GLP-1 (cAMP EC50, human GLP-1 receptor-expressing CHO cells) (human GLP-1 receptor): 108%

B13: GLP-1/GIP dual agonist of SEQ ID NO: 15 (peptide)
peptide: Y[Aib]EGTFTSDYSIYLDERACKDFVQWLLDHHPSSGQPPPSYK
modifications: bridge 16-20
In vitro activity (%) compared to native-type peptide, vs human GLP-1 (cAMP EC50, human GLP-1 receptor-expressing CHO cells) (human GLP-1 receptor): 97.5% | In vitro activity (%) compared to native-type peptide, vs human GIP (cAMP EC50, human GIP receptor-expressing CHO cells) (human GIP receptor): 64.4%
